The values below come from patent US20240352075A1, “PACAP1-23 ANALOG GLYCOPEPTIDES AND METHODS FOR PRODUCING AND USING THE SAME” (priority 2021, published 2024).

Where a SMILES comes first, the peptide text is derived from it. Primed or numbered codes have the meaning given here. Where no end group is shown, it is not given here. [ ]: non-standard residue; d: D form. The star is where a group is joined. ξ: configuration not given here. X2 = OCC1OC(OC2C(CO)OC(*)C(O)C2O)C(O)C(O)C1O; Glc = glucose on Ser (glucosylated Ser); Glc″ = glucose, glycoside on Ser; Lac′ = lactose, glycoside on Ser; Nva = CCC[C@H](N)C(=O)O; ξS = NC(CO)C(=O)O; Sar = CNCC(=O)O

One assay concerns the target T1, VPAC2 (Homo sapiens, UniProt P41587).
T1 construct: 3xHA (N)
T1 sequence (P41587 24-438): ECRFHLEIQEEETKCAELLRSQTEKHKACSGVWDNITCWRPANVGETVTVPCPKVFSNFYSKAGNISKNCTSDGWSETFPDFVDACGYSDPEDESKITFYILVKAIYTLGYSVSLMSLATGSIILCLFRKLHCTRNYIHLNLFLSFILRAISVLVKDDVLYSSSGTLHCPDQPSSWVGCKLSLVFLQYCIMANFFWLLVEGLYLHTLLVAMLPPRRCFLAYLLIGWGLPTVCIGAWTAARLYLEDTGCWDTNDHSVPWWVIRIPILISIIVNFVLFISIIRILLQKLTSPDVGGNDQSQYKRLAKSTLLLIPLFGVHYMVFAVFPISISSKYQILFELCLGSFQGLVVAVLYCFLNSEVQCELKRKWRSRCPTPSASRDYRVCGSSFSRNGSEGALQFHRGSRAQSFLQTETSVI
The assay is described as follows: cAMP accumulation assay in CHO cells stably expressing VPAC2. The note with it: CHO. The class given is cell-based.

The target in the next assay is T2, PAC1 (Homo sapiens, UniProt P41586).
T2 construct: 3xHA (N)
T2 sequence (P41586 21-468): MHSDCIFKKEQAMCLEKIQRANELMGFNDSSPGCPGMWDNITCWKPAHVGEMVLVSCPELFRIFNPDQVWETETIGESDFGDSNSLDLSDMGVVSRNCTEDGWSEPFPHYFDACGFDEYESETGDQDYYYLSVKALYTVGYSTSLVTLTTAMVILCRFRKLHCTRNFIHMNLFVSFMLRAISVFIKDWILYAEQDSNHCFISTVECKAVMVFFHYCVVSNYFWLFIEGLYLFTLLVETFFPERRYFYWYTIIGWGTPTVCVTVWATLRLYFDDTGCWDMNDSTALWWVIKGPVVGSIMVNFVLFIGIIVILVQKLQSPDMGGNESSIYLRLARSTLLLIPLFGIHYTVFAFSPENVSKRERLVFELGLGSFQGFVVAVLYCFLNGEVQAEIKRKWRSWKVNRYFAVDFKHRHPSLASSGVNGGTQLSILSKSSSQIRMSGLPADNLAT
The assay can be described thus: cAMP accumulation assay in CHO cells stably expressing PAC1. The class given is cell-based. The note with it: CHO. In general terms: Changes in cAMP serve as a functional read-out for many G protein-coupled receptors.

For another assay, the target named is T3, VPAC1 (Homo sapiens, UniProt P32241).
T3 construct: 3xHA (N)
T3 sequence (P32241 31-457): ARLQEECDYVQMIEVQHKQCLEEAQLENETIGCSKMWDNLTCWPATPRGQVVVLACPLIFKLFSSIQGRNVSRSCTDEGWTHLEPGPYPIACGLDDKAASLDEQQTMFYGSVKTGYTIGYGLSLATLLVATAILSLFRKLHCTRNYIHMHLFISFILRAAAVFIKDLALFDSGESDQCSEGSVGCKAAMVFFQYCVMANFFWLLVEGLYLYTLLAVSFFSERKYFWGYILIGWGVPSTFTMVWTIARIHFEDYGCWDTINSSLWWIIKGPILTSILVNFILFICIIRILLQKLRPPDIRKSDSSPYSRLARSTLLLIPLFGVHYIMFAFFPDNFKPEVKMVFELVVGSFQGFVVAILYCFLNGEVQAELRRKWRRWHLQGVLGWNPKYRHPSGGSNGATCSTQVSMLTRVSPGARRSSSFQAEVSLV
The assay is described as follows: cAMP accumulation assay in CHO cells stably expressing VPAC1. The format is cell-based. The note with it: CHO.

In assay [1] the target is T4, human VPAC2 (human, UniProt P41587 24-438).
T4 sequence (looked up): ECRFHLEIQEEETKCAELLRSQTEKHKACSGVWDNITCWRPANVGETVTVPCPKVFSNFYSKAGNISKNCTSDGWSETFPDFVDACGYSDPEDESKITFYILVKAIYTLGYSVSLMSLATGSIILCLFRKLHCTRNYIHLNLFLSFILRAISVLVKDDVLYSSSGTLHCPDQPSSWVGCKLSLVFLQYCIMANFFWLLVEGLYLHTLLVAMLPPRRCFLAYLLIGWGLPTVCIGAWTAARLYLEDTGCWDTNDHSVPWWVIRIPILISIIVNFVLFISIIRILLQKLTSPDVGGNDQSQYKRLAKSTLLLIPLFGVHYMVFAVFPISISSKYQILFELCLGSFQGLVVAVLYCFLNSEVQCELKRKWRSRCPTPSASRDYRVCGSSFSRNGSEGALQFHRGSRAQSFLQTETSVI
The assay can be described thus: cell-based or functional assay.

In assay [2] the target is T5, human VPAC1 (human, UniProt P32241 31-457).
T5 sequence (looked up): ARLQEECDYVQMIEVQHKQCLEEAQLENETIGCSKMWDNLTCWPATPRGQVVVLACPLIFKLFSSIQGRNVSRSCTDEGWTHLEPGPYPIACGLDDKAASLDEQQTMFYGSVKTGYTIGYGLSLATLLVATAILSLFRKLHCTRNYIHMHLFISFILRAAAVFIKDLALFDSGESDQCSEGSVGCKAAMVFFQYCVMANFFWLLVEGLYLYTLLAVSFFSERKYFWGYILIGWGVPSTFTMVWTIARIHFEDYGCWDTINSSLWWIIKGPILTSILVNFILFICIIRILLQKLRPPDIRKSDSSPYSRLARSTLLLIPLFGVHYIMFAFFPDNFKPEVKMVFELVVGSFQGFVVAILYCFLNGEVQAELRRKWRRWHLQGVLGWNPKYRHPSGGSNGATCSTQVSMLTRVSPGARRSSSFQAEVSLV
The assay can be described thus: cell-based or functional assay.

The target of assay [3] is T4, human VPAC2. The assay can be described thus: cell-based or functional assay. This is another data set of the same source.
Another assay has as its target T6, human PAC1 (human, UniProt P41586 21-468).
T6 sequence (looked up): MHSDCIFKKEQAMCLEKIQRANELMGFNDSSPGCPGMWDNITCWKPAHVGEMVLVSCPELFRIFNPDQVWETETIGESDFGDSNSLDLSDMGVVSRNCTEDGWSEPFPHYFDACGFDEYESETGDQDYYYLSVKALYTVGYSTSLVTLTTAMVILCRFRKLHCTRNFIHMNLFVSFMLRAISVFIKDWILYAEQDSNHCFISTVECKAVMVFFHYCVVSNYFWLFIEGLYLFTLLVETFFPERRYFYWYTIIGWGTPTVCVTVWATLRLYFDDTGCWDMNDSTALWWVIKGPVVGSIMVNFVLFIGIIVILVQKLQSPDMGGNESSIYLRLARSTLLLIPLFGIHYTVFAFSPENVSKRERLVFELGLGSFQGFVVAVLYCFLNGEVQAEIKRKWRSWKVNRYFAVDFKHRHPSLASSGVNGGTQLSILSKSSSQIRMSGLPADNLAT
The assay is described as follows: cell-based or functional assay.

Assay [4] has as its target T5, human VPAC1. The assay is described as follows: cell-based or functional assay. This is another data set of the same source.
Assay [5] concerns the target T4, human VPAC2. The assay can be described thus: cell-based or functional assay. The source holds these as a separate data set.
Assay [6] deals with T5, human VPAC1. The assay can be described thus: cell-based or functional assay. This is another data set of the same source.
Where [7] appears, read: Table 3, in vitro cAMP stimulation, NC = No Convergence (no activity).

Turning to `CCC[C@H](NC(=O)[C@H](CCC(N)=O)NC(=O)[C@H](CCCCN)NC(=O)[C@H](CCCNC(=N)N)NC(=O)[C@H](Cc1ccc(O)cc1)NC(=O)[C@H](CCCNC(=N)N)NC(=O)[C@H](CO)NC(=O)[C@H](Cc1ccc(O)cc1)NC(=O)[C@H](CO)NC(=O)[C@H](CC(=O)O)NC(=O)[C@@H](NC(=O)[C@H](Cc1ccccc1)NC(=O)[C@@H](NC(=O)CNC(=O)[C@H](CC(=O)O)NC(=O)[C@H](CO)NC(=O)[C@@H](N)Cc1c[nH]cn1)[C@@H](C)CC)[C@@H](C)O)C(=O)N[C@@H](C)C(=O)N[C@H](C(=O)N[C@@H](CCCCN)C(=O)N[C@@H](CCCCN)C(=O)N[C@@H](Cc1ccc(O)cc1)C(=O)N[C@@H](CC(C)C)C(=O)NC(COC1OC(CO)C(OC2OC(CO)C(O)C(O)C2O)C(O)C1O)C(N)=O)C(C)C` (stereo partly drawn) [CRA-TG-3025] (H-HSDGIFTDSYSRYRKQ[Nva]AVKKYL[ξS](X2)-NH2), the maximum response (Emax) (in general, the size of the effect at its maximum, as opposed to the concentration needed) at VPAC2 amounted to 168%; on VPAC2 (setting [7]) it was 118%; at PAC1, 174%; at VPAC1 it was 91%.
Taken in the same sequence, the figures for `CCC[C@H](NC(=O)[C@H](CCC(N)=O)NC(=O)[C@H](CCCCN)NC(=O)[C@H](CCCNC(=N)N)NC(=O)[C@H](Cc1ccc(O)cc1)NC(=O)[C@H](CCCNC(=N)N)NC(=O)[C@H](CO)NC(=O)[C@H](Cc1ccc(O)cc1)NC(=O)[C@H](CO)NC(=O)[C@H](CC(=O)O)NC(=O)[C@@H](NC(=O)[C@H](Cc1ccccc1)NC(=O)[C@@H](NC(=O)[C@H](C)NC(=O)[C@H](CC(=O)O)NC(=O)[C@H](CO)NC(=O)[C@@H](N)Cc1c[nH]cn1)[C@@H](C)CC)[C@@H](C)O)C(=O)N[C@@H](C)C(=O)N[C@H](C(=O)N[C@@H](CCCCN)C(=O)N[C@@H](CCCCN)C(=O)N[C@@H](Cc1ccc(O)cc1)C(=O)N[C@@H](CC(C)C)C(=O)NC(COC1OC(CO)C(OC2OC(CO)C(O)C(O)C2O)C(O)C1O)C(N)=O)C(C)C` (stereo partly drawn) [CRA-TG-3026] (H-HSDAIFTDSYSRYRKQ[Nva]AVKKYL[ξS](X2)-NH2) were 190%, 115%, 181% and 95%.
Take HSDAIFTDSYSRYRKQ[Nva]AVKKYLS(Lac′)-NH2 [CRA-TG-3026]: the “cAMP stimulation Emax (Table 1, differs from Table 3)” value with human VPAC2 [1] worked out at 190%; with human VPAC1 [2], 124%. In addition, the “cAMP stimulation EC50 (Table 1, differs from Table 3)” value with human VPAC1 [2] came to 35 nM. For the same molecule, the results for the “cAMP stimulation EC50” value with human VPAC2 [3], with human PAC1 and in the assay with human VPAC1 [4] were 321 nM, 7 nM and 38 nM, respectively. In addition, the “cAMP stimulation Emax” value was found to be 115% with human VPAC2 [3], 181% with human PAC1 and 95% with human VPAC1 [4].
Consider HSD[Sar]IFTDSYSRYRKQ[Nva]AVKKYLS(Lac′)-NH2 [CRA-TG-3027], for which the “cAMP stimulation Emax (Table 1, differs from Table 3)” value with human VPAC1 [2] was 107%. In addition, in the assay with human PAC1, the “cAMP stimulation EC50” value was 67 nM and the “cAMP stimulation Emax” value worked out at 134%. Besides, in the assay with human VPAC1 [4], the “cAMP stimulation EC50” value turned out to be 195 nM and the “cAMP stimulation Emax” value was determined as 90%.
On to HSDGIFTDSYSRYRKQ[Nva]AVKKYLS(Glc)S(Glc)-NH2 [CRA-DV-3024], for which the figures for the “cAMP stimulation Emax (Table 1, differs from Table 3)” value in the assay with human VPAC2 [1] and with human VPAC1 [2] were 128% and 147%, respectively. For the same molecule, the “cAMP stimulation EC50” value with human VPAC2 [3] came to 7370 nM; with human PAC1, 1.9 nM; with human VPAC1 [4], 26 nM. For the same molecule, the “cAMP stimulation Emax” value with human VPAC2 [3] was determined as 130%; with human PAC1, 152%; with human VPAC1 [4] it was 127%.
In the case of HSDGIFTDSYSRYRKQ[Nva]AVKKYLS(Glc″)-NH2 [CRA-DV-3023], in the assay with human VPAC2 [5], the “selectivity for PAC1 versus VPAC2 (cAMP potency)” value is ~900 fold. The “selectivity for PAC1 versus VPAC1 (cAMP potency)” value in the assay with human VPAC1 [6] is ~60 fold. Besides, the figures for the “cAMP stimulation EC50” value with human PAC1 and with human VPAC1 [4] were 0.64 nM and 37 nM, respectively.
HSDGIFTDSYSRYRKQ[Nva]AVKKYLS-NH2 (not fully specified) [CRA-DV-3022]: the “cAMP stimulation Emax (Table 1, differs from Table 3)” value with human VPAC2 [1] is 111%; with human VPAC1 [2], 42%. The figures for the “cAMP stimulation EC50” value with human VPAC2 [3], with human PAC1 and with human VPAC1 [4] were 571 nM, 2.2 nM and 5.2 nM, respectively. Also, the “cAMP stimulation Emax” value in the assay with human VPAC2 [3] was determined as 91%; in the assay with human PAC1, 198%; with human VPAC1 [4], 94%.
For HSDGIFTDSYSRYRKQ[Nva]AVKKYLS(Lac′)-NH2 [CRA-TG-3025], in the assay with human VPAC1 [2], the “cAMP stimulation Emax (Table 1, differs from Table 3)” value was 118%. The results for the “cAMP stimulation EC50” value with human PAC1 and with human VPAC1 [4] were 1.8 nM and 21 nM, respectively.
